Measurements reported in paper PMC3229523, “Identification of Lactoferricin B Intracellular Targets Using an Escherichia coli Proteome Chip” (PLoS ONE, 2011).
Ends that are not written are not given here. * marks the point of attachment. Biotin = O=C1N[C@H]2[C@H](CS[C@H]2CCCCC(=O)*)N1

How the values were obtained:
Assay in all cases: peptide or protein array; E. coli proteome chip: purified His-tagged proteins printed in duplicate on Fullmoon slides, blocked with 1% BSA; 10 nM N-terminal biotinylated LfcinB with 1% BSA, room temperature, 1 h; detected with DyLight 649-labeled streptavidin, ratio to DyLight 549-labeled anti-His antibody; ProCAT normalisation, local cut-off; triplicate chips
Settings in all cases: both partners purified
YdcC = target: T1, YdcC (E. coli K-12, UniProt P28917 1-378)
T1 construct: YdcC, E. coli K-12
T1 sequence (looked up): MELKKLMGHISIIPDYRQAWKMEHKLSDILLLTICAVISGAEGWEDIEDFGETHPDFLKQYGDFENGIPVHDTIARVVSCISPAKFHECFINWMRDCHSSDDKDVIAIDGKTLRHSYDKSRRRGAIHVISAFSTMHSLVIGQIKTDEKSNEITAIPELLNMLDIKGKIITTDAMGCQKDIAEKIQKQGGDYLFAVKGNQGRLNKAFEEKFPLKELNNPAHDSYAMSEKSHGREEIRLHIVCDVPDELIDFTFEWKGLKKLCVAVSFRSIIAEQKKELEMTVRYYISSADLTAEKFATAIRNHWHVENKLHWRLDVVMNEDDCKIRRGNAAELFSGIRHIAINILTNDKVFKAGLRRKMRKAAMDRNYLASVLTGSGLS

YbaE = target: T2, YbaE (E. coli K-12, UniProt P46890 1-566)
T2 construct: YbaE, E. coli K-12
T2 sequence (looked up): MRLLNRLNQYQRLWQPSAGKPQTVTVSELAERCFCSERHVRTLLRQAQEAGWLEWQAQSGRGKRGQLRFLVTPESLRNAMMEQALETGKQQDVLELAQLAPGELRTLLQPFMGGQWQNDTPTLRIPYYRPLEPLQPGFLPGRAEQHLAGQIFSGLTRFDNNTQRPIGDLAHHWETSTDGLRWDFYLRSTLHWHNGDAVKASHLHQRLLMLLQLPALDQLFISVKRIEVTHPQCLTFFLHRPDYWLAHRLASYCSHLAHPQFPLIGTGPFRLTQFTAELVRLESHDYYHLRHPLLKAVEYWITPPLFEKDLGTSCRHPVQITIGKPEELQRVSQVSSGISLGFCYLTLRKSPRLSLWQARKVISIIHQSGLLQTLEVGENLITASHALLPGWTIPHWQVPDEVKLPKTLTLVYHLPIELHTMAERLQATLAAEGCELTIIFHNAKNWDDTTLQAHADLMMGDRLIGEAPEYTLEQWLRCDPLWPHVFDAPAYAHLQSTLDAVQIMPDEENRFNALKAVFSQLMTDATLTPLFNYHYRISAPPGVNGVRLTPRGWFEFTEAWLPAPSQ

IlvL = target: T3, IlvL (E. coli K-12, UniProt P62522 1-32)
T3 construct: IlvL, E. coli K-12
T3 chain (looked up): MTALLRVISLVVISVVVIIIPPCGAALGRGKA

YjbM = target: T4, YjbM (E. coli K-12, UniProt P32694 1-235)
T4 construct: YjbM, E. coli K-12
T4 sequence (looked up): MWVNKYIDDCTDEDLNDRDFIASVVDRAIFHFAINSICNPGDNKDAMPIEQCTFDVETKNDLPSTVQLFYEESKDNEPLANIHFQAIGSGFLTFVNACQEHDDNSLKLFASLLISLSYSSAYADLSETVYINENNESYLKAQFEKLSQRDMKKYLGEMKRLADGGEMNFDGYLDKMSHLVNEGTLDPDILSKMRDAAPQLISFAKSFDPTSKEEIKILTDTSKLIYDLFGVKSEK

HyaE = target: T5, HyaE (E. coli K-12, UniProt P19931 1-132)
T5 construct: HyaE, E. coli K-12
T5 sequence (looked up): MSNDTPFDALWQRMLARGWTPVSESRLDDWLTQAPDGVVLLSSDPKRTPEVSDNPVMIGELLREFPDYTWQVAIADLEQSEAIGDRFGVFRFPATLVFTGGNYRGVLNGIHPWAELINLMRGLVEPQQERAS

AroD = target: T6, AroD (E. coli K-12, UniProt P05194 1-252)
T6 construct: AroD, E. coli K-12
T6 sequence (looked up): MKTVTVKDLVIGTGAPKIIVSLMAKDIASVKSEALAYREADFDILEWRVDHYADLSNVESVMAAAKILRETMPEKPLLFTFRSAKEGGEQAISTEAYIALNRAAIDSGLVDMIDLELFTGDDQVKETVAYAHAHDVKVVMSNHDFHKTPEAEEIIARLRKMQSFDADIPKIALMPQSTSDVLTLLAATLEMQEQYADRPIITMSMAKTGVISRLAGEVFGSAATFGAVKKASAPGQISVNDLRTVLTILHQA

Measured: binding result

B1: N-terminal biotinylated Lactoferricin B (peptide, UniProt P24627 36-60, looked up)
peptide: Biotin-FKCRRWQWRMKKLGAPSITCVRRAF
modifications: ends and bridges not checked
notes: lactoferricin B (LfcinB), cationic antimicrobial peptide of 25 amino acids; also called biotinylated LfcinB; biotin-labeled LfcinB; source: bought: Kelowna Inc
binds: all assays above
